The labels stand for the following.
B1: Vacuolar protein sorting-associated protein 33 (Saccharomyces cerevisiae), P20795 (parent)
chain: MNRFWNTKKFSLTNADGLCATLNEISQNDEVLVVQPSVLPVLNSLLTFQDLTQSTPVRKITLLDDQLSDDLPSALGSVPQMDLIFLIDVRTSLRLPPQLLDAAQKHNLSSLHIIYCRWKPSFQNTLEDTEQWQKDGFDLNSKKTHFPNVIESQLKELSNEYTLYPWDLLPFPQIDENVLLTHSLYNMENVNMYYPNLRSLQSATESILVDDMVNSLQSLIFETNSIITNVVSIGNLSKRCSHLLKKRIDEHQTENDLFIKGTLYGERTNCGLEMDLIILERNTDPITPLLTQLTYAGILDDLYEFNSGIKIKEKDMNFNYKEDKIWNDLKFLNFGSIGPQLNKLAKELQTQYDTRHKAESVHEIKEFVDSLGSLQQRQAFLKNHTTLSSDVLKVVETEEYGSFNKILELELEILMGNTLNNDIEDIILELQYQYEVDQKKILRLICLLSLCKNSLREKDYEYLRTFMIDSWGIEKCFQLESLAELGFFTSKTGKTDLHITTSKSTRLQKEYRYISQWFNTVPIEDEHAADKITNENDDFSEATFAYSGVVPLTMRLVQMLYDRSILFHNYSSQQPFILSREPRVSQTEDLIEQLYGDSHAIEESIWVPGTITKKINASIKSNNRRSIDGSNGTFHAAEDIALVVFLGGVTMGEIAIMKHLQKILGKKGINKRFIIIADGLINGTRIMNSIS
partner: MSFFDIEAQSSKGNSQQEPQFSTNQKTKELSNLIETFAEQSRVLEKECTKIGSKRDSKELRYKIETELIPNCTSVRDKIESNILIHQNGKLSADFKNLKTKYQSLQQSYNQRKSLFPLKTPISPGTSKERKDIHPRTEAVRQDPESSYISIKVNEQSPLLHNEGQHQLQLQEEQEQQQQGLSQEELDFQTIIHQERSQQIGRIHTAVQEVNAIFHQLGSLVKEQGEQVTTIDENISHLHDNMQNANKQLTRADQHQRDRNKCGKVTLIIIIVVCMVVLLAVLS

In this assay the parent is B1. The note with it: with vam3_yeast VAM3, Q12241.
Regarding L184P, the “effect of a mutation on the interaction” value was “decreasing interaction”.
D88K: the “effect of a mutation on the interaction” value is reported as “decreasing interaction”.

The values above are taken from IntAct's records for PubMed 20453860.
